Source: patent publication US6060451, “Thrombin inhibitors based on the amino acid sequence of hirudin” (The National Research Council of Canada, dated 2000)
Non-standard residues stand in square brackets, D forms with d.

Biological target: human α-thrombin (human, UniProt P00734)
Assay: inhibition of thrombin-mediated hydrolysis of Tosyl-Gly-Pro-Arg-AMC (fluorogenic amidolytic assay)

Ac-[dF]PR[(CH2)4CO][NH‑CH2‑CH:CH‑CH2‑CO]DFEPIPL-OH [P183 (SEQ ID NO:5)]
Ki: 300 nM

Ac-[dF]PR[(CH2)4CO][NH‑CH2‑CH:CH‑CH2‑CO][NH‑CH2‑CH:CH‑CH2‑CO][NH‑CH2‑CH:CH‑CH2‑CO]DFEPIPL-OH [P185 (SEQ ID NO:7)]
Ki: 3.2 nM

Ac-[dF]PR[(CH2)4CO][NH‑CH2‑CH:CH‑CH2‑CO][NH‑CH2‑CH:CH‑CH2‑CO]DFEPIPL-OH [P184 (SEQ ID NO:6) (BCH-1710)]
Ki: 3.5 nM
